Reference: US20140193432A1 (LIVTECH, published 2014)
Residue numbers refer to the chain shown, from its start. Names and notes keep the numbering of the source. Values belong to the binder of their own block, whether it stands above or below them.

Key:
[1] = biological target: T1, recombinant protein of the hDlk-1 extracellular region (hDlk-1-His) (human, UniProt P80370 24-303); test: ELISA second format: hDlk-1-His coated at 0.5 µg/ml, antibody titrated from 5 µg/ml
T1 construct: not shown: His tag
T1 sequence: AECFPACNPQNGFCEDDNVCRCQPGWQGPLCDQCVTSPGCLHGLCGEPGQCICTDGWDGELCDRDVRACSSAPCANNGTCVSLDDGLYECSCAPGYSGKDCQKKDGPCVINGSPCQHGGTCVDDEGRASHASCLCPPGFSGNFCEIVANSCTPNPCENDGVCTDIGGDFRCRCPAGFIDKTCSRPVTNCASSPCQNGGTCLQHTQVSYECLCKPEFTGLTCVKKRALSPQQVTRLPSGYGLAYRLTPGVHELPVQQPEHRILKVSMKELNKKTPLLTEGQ

[2] = biological target: T1, recombinant protein of the hDlk-1 …; test: ELISA third format: hDlk-1-His coated at 0.05 µg/ml, purified antibodies
Description: As a third format of ELISA, hDlk-1-His to be coated on a 96-well plate was diluted to a concentration of 1/10, and 0.05 μg/ml hDlk-1-His was then added in an amount of 100 μl/well to the 96-well plate, followed by coating at 4° C. overnight, so as to produce an ELISA plate coated with a low concentration of hDlk-1-His.

B1: humanized BA-1-3D IgG1/κ antibody (HuBA-1-3D-1) (antibody, V domains shown)
VH: QVQLVQSGAEVKKPGASVKVSCKASGYTFTDYAMHWVRQAPGQGLEWIGVISTYYGNTNYNQKFKGKATMTVDTSTSTAYMELRSLRSDDTAVYYCARGGLREYYYAMDYWGQGTMVTVSS
VL: DIVMTQSPDSLAVSLGERATINCKSSQSLLNSSNQKNYLAWYQQKPGQPPKLLVYFASTRESGVPDRFSGSGSGTDFTLTISSLQAEDVAVYYCQQHYSTPPTFGQGTKLEIKR
- EC50 [1]: 0.148 µg/mL

B3: HuBA-1-3D-1-A24G/T73K (antibody, human IgG1, kappa, V domains shown)
VH: B1 VH with A24G, T74K
VL: B1 VL
notes: human IgG1/κ; also called A24G/T73K mutant; HuBA-1-3D-A24G/T73K
- EC50 [2]: 0.0355 µg/mL

Second part, the binder after the results:

- EC50 [1]: 0.154 µg/mL
B2: humanized BA-1-3D IgG1/κ antibody (HuBA-1-3D-2) (antibody, V domains shown)
VH: B1 VH with K67R
VL: B1 VL

- EC50 [2]: 0.0254 µg/mL
- EC50 [1]: 0.116 µg/mL
B4: mouse-human chimeric BA-1-3D IgG1/κ antibody (ChBA-1-3D) (antibody, V domains shown)
VH: QVQLQQSGPELVRPGVSVKISCKGSGYTFTDYAMHWVKQSHAKSLEWIGVISTYYGNTNYNQKFKGKATMTVDKSSSTAYMELARLTSEDSAIYYCARGGLREYYYAMDYWGQGTSVTVSS
VL: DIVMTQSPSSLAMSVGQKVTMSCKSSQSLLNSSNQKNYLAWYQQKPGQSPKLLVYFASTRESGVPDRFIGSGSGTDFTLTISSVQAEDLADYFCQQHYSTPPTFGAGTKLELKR
